Source: patent publication US20190177419A1 (BERGEN TEKNOLOGIOVERFORING, published 2019)
Values belong to the binder of their own block, whether it stands above or below them.

Legend:
[1] = target: T1, recombinant human Axl-Fc chimera (R&D Systems, Cat. no. 154-AL) (human, UniProt P30530 26-451); assay: SPR, Biacore 3000, 25 C, rhAxl-Fc immobilised on CM5 (190 RU); half-life of the complex as ln2/koff
T1 construct: extracellular domain; Bought reagent; also called rhAxl-Fc; rhAxl; not shown: Fc part (and any linker or tag) of the bought chimera; not described
Method: (§1) The precise kinetic analysis was performed using BIA evaluation software and curve fitting according to 1:1 Langmuir binding model.

[2] = target: T1, recombinant human Axl-Fc chimera (R&D …); assay: SPR, Biacore 3000, 25 C, rhAxl-Fc immobilised on CM5 (190 RU), antibody injected, 1:1 Langmuir model
Method: as §1

[3] = target: T2, recombinant human Mer-Fc chimera (R&D Systems, Cat. no. 891-MR) (human, UniProt Q12866 21-505); assay: SPR (Biacore 3000), rhMer-Fc immobilised on a CM5 chip, antibody injected for 3 min [panel 10C9]
T2 construct: Bought reagent; also called rhMer-Fc; rhMer; not shown: Fc part (and any linker or tag) of the bought chimera; not described
T2 sequence: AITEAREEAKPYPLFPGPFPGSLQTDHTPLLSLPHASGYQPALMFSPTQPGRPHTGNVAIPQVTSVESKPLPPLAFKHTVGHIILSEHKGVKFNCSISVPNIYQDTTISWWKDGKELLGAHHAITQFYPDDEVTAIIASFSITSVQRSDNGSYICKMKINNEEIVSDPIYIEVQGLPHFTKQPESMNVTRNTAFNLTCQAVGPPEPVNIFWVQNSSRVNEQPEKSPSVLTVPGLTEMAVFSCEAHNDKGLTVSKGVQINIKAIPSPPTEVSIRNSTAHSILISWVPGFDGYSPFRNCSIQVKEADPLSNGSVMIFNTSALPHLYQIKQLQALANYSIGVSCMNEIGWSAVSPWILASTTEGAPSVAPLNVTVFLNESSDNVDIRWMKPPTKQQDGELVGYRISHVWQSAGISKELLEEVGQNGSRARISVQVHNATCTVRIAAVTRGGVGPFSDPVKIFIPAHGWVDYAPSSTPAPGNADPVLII
Method: (§2) All binding experiments were performed using Biacore 3000 instrument (GE Healthcare) at 25° C. Soluble recombinant antigens corresponding to the extracellular domains of members of the human TAM receptor family, Axl (rhAxl-Fc chimera; R&D Systems, Cat. no. 154-AL), Mer (rhMer-Fc chimera; R&D Systems, Cat. no. 891-MR) and Tyro3 (rhTyro3/Dtk-Fc chimera; R&D Systems, Cat. no. 859-DK) were immobilized on the surface of CM5 sensor chip using amine coupling at the surface density of 393.0, 303.6 and 364.0 resonance units (RU), respectively. The Biacore run was performed in an automatic mode using Binding to analysis wizard.

[4] = target: T3, recombinant mouse Axl-Fc chimera (R&D Systems, Cat. no. 854-AX) (mouse, UniProt Q00993 19-445); assay: SPR (Biacore 3000), rmAxl-Fc immobilised on a CM5 chip, antibody injected for 3 min [panel 10C9]
T3 construct: Bought soluble reagent; also called rmAxl-Fc; rmAxl; not shown: Fc part (and any linker or tag) of the bought chimera; not described
T3 sequence (Q00993 other isoform, or with tags, fused parts or gaps mutant): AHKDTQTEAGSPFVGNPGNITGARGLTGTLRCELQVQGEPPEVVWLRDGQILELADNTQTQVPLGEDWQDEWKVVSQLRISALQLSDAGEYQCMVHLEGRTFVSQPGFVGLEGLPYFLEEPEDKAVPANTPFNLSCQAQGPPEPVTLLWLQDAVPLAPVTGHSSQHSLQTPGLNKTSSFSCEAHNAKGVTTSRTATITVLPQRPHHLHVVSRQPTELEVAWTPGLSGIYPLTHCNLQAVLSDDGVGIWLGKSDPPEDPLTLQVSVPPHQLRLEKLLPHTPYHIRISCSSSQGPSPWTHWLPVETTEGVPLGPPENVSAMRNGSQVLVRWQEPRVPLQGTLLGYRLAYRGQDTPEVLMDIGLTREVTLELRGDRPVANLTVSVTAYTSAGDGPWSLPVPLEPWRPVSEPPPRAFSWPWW
Method: (§3) The binding experiments were performed using Biacore 3000 instrument (GE Healthcare) at 25° C. The soluble recombinant antigens corresponding to human Axl (rhAxl-Fc chimera; R&D Systems, Cat. no. 154-AL), mouse Axl (rmAxl-Fc chimera; R&D Systems, R&D Systems; Cat. no. 854-AX) and human Tyro3 (rhTyro3/Dtk-Fc chimera; R&D Systems, Cat. no. 859-DK) were immobilized on the surface of CM5 sensor chip using amine coupling at the surface density of 1,308.0, 2,115.9 and 1,429.0 RU, respectively. The Biacore runs were performed in an automatic mode using Binding analysis wizard.

[5] = target: T4, recombinant human Tyro3/Dtk-Fc chimera (R&D Systems, Cat. no. 859-DK) (human, UniProt Q06418 41-429); assay: SPR (Biacore 3000), rhTyro3/Dtk-Fc immobilised on a CM5 chip, antibody injected for 3 min [panel 10C9]
T4 construct: Bought reagent; also called rhTyro3/Dtk-Fc; rhTyro3; not shown: Fc part (and any linker or tag) of the bought chimera; not described
T4 sequence: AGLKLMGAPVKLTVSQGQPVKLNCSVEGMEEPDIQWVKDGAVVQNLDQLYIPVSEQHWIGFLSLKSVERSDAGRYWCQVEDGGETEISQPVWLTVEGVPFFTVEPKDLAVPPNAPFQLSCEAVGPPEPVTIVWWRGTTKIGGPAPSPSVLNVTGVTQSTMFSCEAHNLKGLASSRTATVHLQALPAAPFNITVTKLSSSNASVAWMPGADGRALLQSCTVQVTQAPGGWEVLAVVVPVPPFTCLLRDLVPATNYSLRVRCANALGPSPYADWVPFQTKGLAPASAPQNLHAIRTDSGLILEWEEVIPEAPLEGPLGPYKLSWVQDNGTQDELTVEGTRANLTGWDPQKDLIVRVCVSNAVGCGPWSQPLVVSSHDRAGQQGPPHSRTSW
Method: as §2

[6] = target: T5, human Axl receptor on cells (Axl-positive MDA-MB-231 cells; HeLa cells; Axl+ cells) (human, UniProt P30530 26-894); assay: flow cytometry on MDA-MB-231 cells, detection with APC-conjugated donkey anti-mouse IgG (H+L) F(ab')2
T5 construct: whole, on cells; Endogenous Axl of human cell lines; also called Axl-positive cells

[7] = target: T6, recombinant cyno-Axl-Fc (extracellular domain of cynomolgus monkey Axl fused to human Fc) (cynomolgus monkey (Macaca fascicularis), UniProt P30530 26-451 (human entry)); assay: SPR (Biacore 3000), cyno-Axl-Fc immobilised on a CM5 chip, antibody injected at 10 µg/mL for 3 min, 5 min dissociation [panel 10C9]
T6 construct: also called Axl from cynomolgus monkey; not shown: human Fc
T6 chain: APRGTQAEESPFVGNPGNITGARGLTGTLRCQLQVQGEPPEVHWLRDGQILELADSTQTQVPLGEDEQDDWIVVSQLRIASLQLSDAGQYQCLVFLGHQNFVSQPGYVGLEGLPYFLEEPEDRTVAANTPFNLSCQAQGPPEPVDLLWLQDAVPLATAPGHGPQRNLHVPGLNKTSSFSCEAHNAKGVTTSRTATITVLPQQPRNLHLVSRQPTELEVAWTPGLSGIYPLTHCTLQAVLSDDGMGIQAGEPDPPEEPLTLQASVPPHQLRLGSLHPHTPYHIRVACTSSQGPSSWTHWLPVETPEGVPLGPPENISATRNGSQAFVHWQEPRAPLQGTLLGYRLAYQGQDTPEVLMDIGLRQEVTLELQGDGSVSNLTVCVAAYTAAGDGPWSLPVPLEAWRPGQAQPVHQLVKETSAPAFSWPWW
Method: (§4) The sequence of Axl receptor from cynomolgus monkey (Macace fascicularis; SEQ ID NO.43) was retrieved from WO2009062690A1. Based on the sequence, recombinant extracellular domain of cyno-Axl was generated by transient expression in CHO cells as a fusion protein with human Fc. […] The binding experiments were performed using Biacore 3000 instrument (GE Healthcare) at 25° C. […] The Biacore runs were performed in an automatic mode using Binding analysis wizard.

[8] = target: T5, human Axl receptor on cells …; assay: flow cytometry on MDA-MB-231 cells, detection with APC-conjugated donkey anti-human IgG (H+L) F(ab')2
Method: The cell staining was measured using Accuri C6 flow cytometer (BD Biosciences). MFI, geometric mean fluorescence intensity.
For flow cytometry, the adherent cells in culture were washed with PBS, detached by treatment with trypsin (0.25%) for 1 min and hitting culture dish for full detachment. Trypsin was quenched by adding into the tissue flask the complete medium followed by washing the cells with PBS. During the washing steps, the cells were collected by centrifugation at 200 g for 5 min. The antibody was diluted for total concentration in PBS containing 0.02% bovine serum albumin (BSA). Cell staining was performed using 200 μL of cell suspension comprising 10⁵ cells for 20 min at room temperature. The cell-bound antibodies were detected with APC-conjugated donkey anti-human or anti-mouse, respectively, IgG (H+L) F(ab′)₂ fragments (Jackson ImmunoResearch). After two washing steps with PBS/0.02% BSA, the cells were resuspended in 200 μL and kept on ice before analysis on Accuri C6 flow cytometer (BD Biosciences).

[9] = target: T2, recombinant human Mer-Fc chimera (R&D …); assay: SPR (Biacore 3000), rhMer-Fc immobilised on a CM5 chip, antibody injected for 3 min [panel 10G5]
Method: as §2

[10] = target: T3, recombinant mouse Axl-Fc chimera (R&D …); assay: SPR (Biacore 3000), rmAxl-Fc immobilised on a CM5 chip, antibody injected for 3 min [panel 10G5]
Method: as §3

[11] = target: T4, recombinant human Tyro3/Dtk-Fc chimera …; assay: SPR (Biacore 3000), rhTyro3/Dtk-Fc immobilised on a CM5 chip, antibody injected for 3 min [panel 10G5]
Method: as §2

[12] = target: T6, recombinant cyno-Axl-Fc (extracellular …); assay: SPR (Biacore 3000), cyno-Axl-Fc immobilised on a CM5 chip, antibody injected at 10 µg/mL for 3 min, 5 min dissociation [panel 10G5]
Method: as §4

- Half-life (t1/2) [1]: 40 min
- Kd [2]: 180 pM
- koff [2]: 0.000289 s⁻¹
- kon [2]: 1.61e+06 M⁻¹ s⁻¹
- binding result [3]: no binding (tested: 10 µg/mL)
- binding result [4]: no binding (tested: 10 µg/mL)
- binding result [5]: no binding (tested: 10 µg/mL)
- EC50 (read off the curve) [6]: ~200 pM
- binding result [7]: binds
B1: mouse monoclonal antibody 10C9 (from hybridoma UT-10C9-B9) (antibody, IgG2b, V domains shown)
VH: QVQLQQPGPELVKPGASVKISCKTSDYNFTRYYIHWVKQRPGQGLEWIGWIYPGTGDSKYNEKFKGRATLTADTSSSTAYMQLSSQTSEDSAVYFCARNGNYWYFDVWGAGTAVTVSS
VL: DIVMTQAAPSGPVTPGESVSISCRSSKSLLHSNGNTYLYWFLQRPGQSPQLLIYRMSNLASGVPDRFSGSGSGTAFTLRISRVEAEDVGIYYCMQHREYPFTFGGGTKLEIK
notes: Whole mouse antibody purified from hybridoma supernatant; Possible N-glycosylation site (NFT) in CDR-H1; also called MAb 10C9

- Half-life (t1/2) [1]: 52.8 min
- Kd [2]: 102 pM
- koff [2]: 0.000219 s⁻¹
- kon [2]: 2.16e+06 M⁻¹ s⁻¹
- EC50 (read off the curve) [8]: ~200 pM
B2: chimeric (mouse variable/human constant) IgG1 antibody c10C9 (antibody, V domains shown)
VH: B1 VH
VL: B1 VL
notes: 10C9 VH and VL joined in frame to human IgG1 and C-kappa constant domains, made in CHO cells; also called chimeric 10C9; not shown: constant domains of the human IgG1 heavy chain; constant domain of the human light (C-kappa) chain

- Half-life (t1/2) [1]: 26.3 min
- Kd [2]: 530 pM
- koff [2]: 0.000439 s⁻¹
- kon [2]: 829000 M⁻¹ s⁻¹
- binding result [9]: no binding (tested: 10 µg/mL)
- binding result [10]: no binding (tested: 10 µg/mL)
- binding result [11]: no binding (tested: 10 µg/mL)
- binding result [12]: binds
B3: mouse monoclonal antibody 10G5 (from hybridoma WR-10G5-E5) (antibody, IgG1, V domains shown)
VH: QVQLQQSGAELVRPGASVKLSCKASGYSFTDFYINWVRQRPGQGLEWIARIFPGGDNTYYNEKFKGKATLTAEESSSTAYIQLSSLTSEDSAVYFCARRGLYYAMDYWGQGISVTVSS
VL: DVLMTQTPLSLPVSLGDQASISCRSSQSLVHSNGIPYLHWYLQKPGQSPKLLIYRVSNRFSGVPDRFSGSGSGTDFTLKISRVEAEDLGVYFCSQGTHVPPTFGGGTKLEIK
notes: Whole mouse antibody purified from hybridoma supernatant; also called MAb 10G5

- Half-life (t1/2) [1]: 68.4 min
- Kd [2]: 103 pM
- koff [2]: 0.000169 s⁻¹
- kon [2]: 1.64e+06 M⁻¹ s⁻¹
- EC50 (read off the curve) [8]: ~200 pM
B4: chimeric (mouse variable/human constant) IgG1 antibody c10G5 (antibody, V domains shown)
VH: B3 VH
VL: B3 VL
notes: 10G5 VH and VL joined in frame to human IgG1 and C-kappa constant domains, made in CHO cells; also called chimeric 10G5; not shown: constant domains of the human IgG1 heavy chain; constant domain of the human light (C-kappa) chain
